Data: patent US20130323302A1

Target: recombinant VEGF (UniProt P15692)
Assay: cell-based or functional assay

Chain of recombinant VEGF (P15692 other isoform, or with tags, fused parts or gaps limits assumed): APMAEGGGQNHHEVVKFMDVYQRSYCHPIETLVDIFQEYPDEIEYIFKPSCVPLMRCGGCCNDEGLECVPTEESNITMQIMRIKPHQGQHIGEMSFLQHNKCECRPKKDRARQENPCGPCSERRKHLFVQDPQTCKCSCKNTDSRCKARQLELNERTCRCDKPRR

inhibition of VEGF-induced proliferation of HUVECs (MTT assay), 40 µL conditioned medium from rAAV.sFlt-1-transduced 293 cells: 32%
Substance: soluble Fms-related tyrosine kinase-1 (sFLT-1) protein, human, secreted by rAAV.sFlt-1-transduced 293 cells (from UniProt P17948 27-450)
